Article PMC4643883
Read-outs that look alike come from different tables or passages of the source.

Tests used:
[1] = target: Drosophila Telomere Loss / Modigliani (DTL/Moi), D. melanogaster (Drosophila melanogaster) (UniProt B7Z0L8); experiment: SEC; combined heparin-sepharose fractions of co-expressed Ver and DTL/Moi; Superdex 200 10/300 GL; 20 mM Tris pH 7.5, 100 mM NaCl
[2] = target: Drosophila Telomere Loss / Modigliani (DTL/Moi), D. melanogaster (Drosophila melanogaster) (UniProt B7Z0L8); experiment: as above; remark: listed apart in the source

Sequence of UniProt B7Z0L8 (B7Z0L8 whole entry): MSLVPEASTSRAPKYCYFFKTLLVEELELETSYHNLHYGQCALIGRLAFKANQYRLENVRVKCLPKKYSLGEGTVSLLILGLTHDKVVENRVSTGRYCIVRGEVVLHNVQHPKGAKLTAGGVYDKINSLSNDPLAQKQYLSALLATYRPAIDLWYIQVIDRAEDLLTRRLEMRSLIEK

With “D. yakuba Verrocchio (Ver) (natural protein)” the stoichiometry N [1] was 1.

B1: Verrocchio (Ver), D. melanogaster (natural protein)
chain: MDFNQSFEDIESQLDNFVIRKNQQSEKSTGKCGPEVHDNVPLTISQIERATQDPENENVFITDDVHPIHFCTCIIYAFVTGNGTHNESFMKFMIDDGTGSLEASITKKPFNGRVISSLYSEASSLASSEAYKSIAVSMMRLLQVSMEYIDPTRISRGHSLFLRGRPNRFRGKMGLDAFQFFIDSGRSRNMEIGFVDYLTDWQRRHKTMQNTTNK
For B1, the stoichiometry N [2] was 1.
